B1: TLE6 (parent)
chain: FWHDTLTEQLWRIFAGVHDEKAKP
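Note: lentivirally expressed fusions sorted by FACS into six bins by GFP to DsRed ratio, PSI derived from sequencing read proportions per bin multiplied by bin number.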

Variants of: B1
Test: protein stability index of a GFP-peptide fusion (GPS, HEK-293T) (PSI 1-6); higher = more stable
Conditions: c terminus: a fixed tail appended
FWHDTLTEQLWRIFAGVHGEKAKP [D19G] showed a protein stability index of 1.72. Work on FWHDTLTEQLWRIFAGVHPEKAKP [D19P] yielded a protein stability index of 1.8. For FWHDTLTEQLWRIFAGVHTEKAKP [D19T], the protein stability index was 2.7. Variant FWHDTLTEQLWRIFAGVHAEKAKP [D19A] has a protein stability index of 2.33. FWHDTLTEQLWRIFAGVHVEKAKP [D19V] showed a protein stability index of 3.94. Work on FWHDTLTEQLWRIFAGVHNEKAKP [D19N] yielded a protein stability index of 2.8. For FWHDTLTEQLWRIFAGVHHEKAKP [D19H], the protein stability index was 1.65. Variant FWHDTLTEQLWRIFAGVHLEKAKP [D19L] has a protein stability index of 1.39. FWHDTLTEQLWRIFAGVHEEKAKP [D19E] gave a protein stability index of 1.62. In the case of FWHDTLTEQLWRIFAGVHWEKAKP [D19W], the protein stability index is reported as 3.85. In the case of FWHDTLTEQLWRIFAGVHIEKAKP [D19I], the protein stability index is reported as 2.08. FWHDTLTEQLWRIFAGVHMEKAKP [D19M] showed a protein stability index of 2.1. FWHDTLTEQLWRIFAGVHYEKAKP [D19Y] gave a protein stability index of 2.97. FWHDTLTEQLWRIFAGVHREKAKP [D19R] showed a protein stability index of 2.35. FWHDTLTEQLWRIFAGVHQEKAKP [D19Q] showed a protein stability index of 1.22. FWHDTLTEQLWRIFAGVHKEKAKP [D19K] showed a protein stability index of 1.7. In the case of FWHDTLTEQLWRAFAGVHDEKAKP [I13A], the protein stability index is reported as 2.02. FWHDTLTEQLWRFFAGVHDEKAKP [I13F] gave a protein stability index of 1.96. For FWHDTLTEQLWRDFAGVHDEKAKP [I13D], the protein stability index was 1.78. Work on FWHDTLTEQLWRYFAGVHDEKAKP [I13Y] yielded a protein stability index of 2.1. For FWHDTLTEQLWRHFAGVHDEKAKP [I13H], the protein stability index was 1.94. For FWHDTLTEQLWRMFAGVHDEKAKP [I13M], the protein stability index was 2.13. In the case of FWHDTLTEQLWRRFAGVHDEKAKP [I13R], the protein stability index is reported as 2.02. For FWHDTLTEQLWRLFAGVHDEKAKP [I13L], the protein stability index was 1.69. With FWHDTLTEQLWRTFAGVHDEKAKP [I13T] the protein stability index was 2.44. Work on FWHDTLTEQLWRWFAGVHDEKAKP [I13W] yielded a protein stability index of 1.47. FWHDTLTEQLWRKFAGVHDEKAKP [I13K] gave a protein stability index of 2.53. Work on FWHDTLTEQLWRVFAGVHDEKAKP [I13V] yielded a protein stability index of 1.72. FWHDTLTEQLWRNFAGVHDEKAKP [I13N] gave a protein stability index of 1.59. With FWHDTLTEQLWRSFAGVHDEKAKP [I13S] the protein stability index was 1.99. For FWHDTLTEQLWRPFAGVHDEKAKP [I13P], the protein stability index was 2.85. Variant FWHDTLTEQLWREFAGVHDEKAKP [I13E] has a protein stability index of 2.99. FWHDTLTEQLWRCFAGVHDEKAKP [I13C] showed a protein stability index of 2.39. For FWHDTLTEQLWRQFAGVHDEKAKP [I13Q], the protein stability index was 2.54. Work on FWHDTLTEQLWRIMAGVHDEKAKP [F14M] yielded a protein stability index of 2.19. With FWHDTLTEQLWRIEAGVHDEKAKP [F14E] the protein stability index was 2.19. For FWHDTLTEQLWRIVAGVHDEKAKP [F14V], the protein stability index was 2.35. In the case of FWHDTLTEQLWRIRAGVHDEKAKP [F14R], the protein stability index is reported as 2.4. For FWHDTLTEQLWRITAGVHDEKAKP [F14T], the protein stability index was 2.39. For FWHDTLTEQLWRIQAGVHDEKAKP [F14Q], the protein stability index was 1.52. In the case of FWHDTLTEQLWRIGAGVHDEKAKP [F14G], the protein stability index is reported as 2.21. Work on FWHDTLTEQLWRIAAGVHDEKAKP [F14A] yielded a protein stability index of 1.65. For FWHDTLTEQLWRISAGVHDEKAKP [F14S], the protein stability index was 1.75. With FWHDTLTEQLWRIPAGVHDEKAKP [F14P] the protein stability index was 1.98. Work on FWHDTLTEQLWRINAGVHDEKAKP [F14N] yielded a protein stability index of 1.45. For FWHDTLTEQLWRIKAGVHDEKAKP [F14K], the protein stability index was 2.61. Work on FWHDTLTEQLWRICAGVHDEKAKP [F14C] yielded a protein stability index of 2.62. Variant FWHDTLTEQLWRILAGVHDEKAKP [F14L] has a protein stability index of 1.8. FWHDTLTEQLWRIDAGVHDEKAKP [F14D] showed a protein stability index of 1.61. For FWHDTLTEQLWRIWAGVHDEKAKP [F14W], the protein stability index was 1.89. With FWHDTLTEQLWRIHAGVHDEKAKP [F14H] the protein stability index was 1.65. In the case of FWHDTLTEQLWRIYAGVHDEKAKP [F14Y], the protein stability index is reported as 2.13. For FWHDTLTEQLWRIIAGVHDEKAKP [F14I], the protein stability index was 2.56. FWHDTLTEQLWPIFAGVHDEKAKP [R12P] showed a protein stability index of 2.43. FWHDTLTEQLWTIFAGVHDEKAKP [R12T] showed a protein stability index of 2.02. In the case of FWHDTLTEQLWSIFAGVHDEKAKP [R12S], the protein stability index is reported as 2.06. Variant FWHDTLTEQLWDIFAGVHDEKAKP [R12D] has a protein stability index of 1.94. Work on FWHDTLTEQLWAIFAGVHDEKAKP [R12A] yielded a protein stability index of 1.91. Work on FWHDTLTEQLWMIFAGVHDEKAKP [R12M] yielded a protein stability index of 1.52. For FWHDTLTEQLWHIFAGVHDEKAKP [R12H], the protein stability index was 2.11. Variant FWHDTLTEQLWFIFAGVHDEKAKP [R12F] has a protein stability index of 2.21. With FWHDTLTEQLWWIFAGVHDEKAKP [R12W] the protein stability index was 2.47. For FWHDTLTEQLWKIFAGVHDEKAKP [R12K], the protein stability index was 2.17. FWHDTLTEQLWLIFAGVHDEKAKP [R12L] showed a protein stability index of 1.91. Work on FWHDTLTEQLWVIFAGVHDEKAKP [R12V] yielded a protein stability index of 1.71. Work on FWHDTLTEQLWCIFAGVHDEKAKP [R12C] yielded a protein stability index of 2.88. Variant FWHDTLTEQLWGIFAGVHDEKAKP [R12G] has a protein stability index of 2.23. In the case of FWHDTLTEQLWIIFAGVHDEKAKP [R12I], the protein stability index is reported as 2.73. In the case of FWHDTLTEQLWQIFAGVHDEKAKP [R12Q], the protein stability index is reported as 1.94. With FWHDTLTEQLWNIFAGVHDEKAKP [R12N] the protein stability index was 2.2. For FWHDTLTEQLWYIFAGVHDEKAKP [R12Y], the protein stability index was 1.69. Variant FWHDTLTEQLWEIFAGVHDEKAKP [R12E] has a protein stability index of 1.63. Work on FWHDTLTEQLWRIFALVHDEKAKP [G16L] yielded a protein stability index of 1.64. Work on FWHDTLTEQLWRIFATVHDEKAKP [G16T] yielded a protein stability index of 1.62. For FWHDTLTEQLWRIFAKVHDEKAKP [G16K], the protein stability index was 2.12. Work on FWHDTLTEQLWRIFAMVHDEKAKP [G16M] yielded a protein stability index of 2.14. FWHDTLTEQLWRIFARVHDEKAKP [G16R] gave a protein stability index of 1.6. With FWHDTLTEQLWRIFANVHDEKAKP [G16N] the protein stability index was 2.07. With FWHDTLTEQLWRIFAIVHDEKAKP [G16I] the protein stability index was 1.89. With FWHDTLTEQLWRIFAAVHDEKAKP [G16A] the protein stability index was 1.88. With FWHDTLTEQLWRIFAVVHDEKAKP [G16V] the protein stability index was 2.85. In the case of FWHDTLTEQLWRIFADVHDEKAKP [G16D], the protein stability index is reported as 2.06. FWHDTLTEQLWRIFAPVHDEKAKP [G16P] gave a protein stability index of 3.4. FWHDTLTEQLWRIFAYVHDEKAKP [G16Y] showed a protein stability index of 2.51. With FWHDTLTEQLWRIFACVHDEKAKP [G16C] the protein stability index was 1.83. Work on FWHDTLTEQLWRIFAEVHDEKAKP [G16E] yielded a protein stability index of 1.9. Variant FWHDTLTEQLWRIFAWVHDEKAKP [G16W] has a protein stability index of 2.23. In the case of FWHDTLTEQLWRIFAFVHDEKAKP [G16F], the protein stability index is reported as 1.72. With FWHDTLTEQLWRIFASVHDEKAKP [G16S] the protein stability index was 1.82. Work on FWHDTLTEQLWRIFAHVHDEKAKP [G16H] yielded a protein stability index of 2.26. Variant FWHDTLTEQLWRIFAQVHDEKAKP [G16Q] has a protein stability index of 1.89. FWHDTLTEQLYRIFAGVHDEKAKP [W11Y] gave a protein stability index of 2.87. FWHDTLTEQLVRIFAGVHDEKAKP [W11V] showed a protein stability index of 1.56. For FWHDTLTEQLTRIFAGVHDEKAKP [W11T], the protein stability index was 2.35.
